The results in this text go back to paper PMC3824023.

The target of this experiment is microtubules polymerised from bovine brain tubulin (bovine) (UniProt Q6B856).
Sequence of UniProt Q6B856 (Q6B856 whole entry, looked up): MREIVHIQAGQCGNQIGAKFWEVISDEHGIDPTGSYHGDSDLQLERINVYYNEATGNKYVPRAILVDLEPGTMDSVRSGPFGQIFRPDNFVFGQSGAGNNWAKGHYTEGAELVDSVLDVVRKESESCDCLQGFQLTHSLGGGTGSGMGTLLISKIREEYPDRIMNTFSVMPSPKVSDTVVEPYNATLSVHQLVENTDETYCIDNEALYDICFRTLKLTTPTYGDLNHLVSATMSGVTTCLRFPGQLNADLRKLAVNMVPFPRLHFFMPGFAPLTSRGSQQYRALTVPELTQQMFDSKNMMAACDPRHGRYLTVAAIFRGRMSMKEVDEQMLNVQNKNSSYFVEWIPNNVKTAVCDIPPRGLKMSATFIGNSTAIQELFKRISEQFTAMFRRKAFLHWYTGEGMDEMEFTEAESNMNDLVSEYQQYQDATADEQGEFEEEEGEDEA

B1: KIF17M-490 (C-terminally truncated KIF17, amino acids 1-490: motor, neck and first coiled-coil domains) (domain or fragment)
chain: MASEAVKVVVRCRPMNQRERELRCQPVVTVDCARAQCCIQNPGAADEPPKQFTFDGAYHVDHVTEQIYNEIAYPLVEGVTEGYNGTIFAYGQTGSGKSFTMQGLPDPPSQRGIIPRAFEHVFESVQCAENTKFLVRASYLEIYNEDVRDLLGADTKQKLELKEHPEKGVYVKGLSMHTVHSVAQCEHIMETGWKNRSVGYTLMNKDSSRSHSIFTISIEMSAVDERGKDHLRAGKLNLVDLAGSERQSKTGATGERLKEATKINLSLSALGNVISALVDGRCKHVPYRDSKLTRLLQDSLGGNTKTLMVACLSPADNNYDETLSTLRYANRAKNIRNKPRINEDPKDALLREYQEEIKKLKAILTQQMSPSSLSALLSRQVPPDPVQVEEKLLPQPVIQHDVEAEKQLIREEYEERLARLKADYKAEQESRARLEEDITAMRNSYDVRLSTLEENLRKETEAVLQVGVLYKAEVMSRAEFASSAEYPPAF
Regarding B1, the K (0.5, MT) of MT-stimulated ATPase, KIF17M-490 alone was found to be 1.3 µM; the K (0.5, MT) of MT-stimulated ATPase, KIF17M-490 with EB1 (2x molar ratio) amounted to 0.7 µM; the K (0.5, MT) of MT-stimulated ATPase, KIF17M-490 with equimolar KIF17-tail amounted to 0.4 µM.
